{"source": "the Human Domainome abundance scans (Beltran et al. 2025)", "note": "± gives the uncertainty stated by the source.", "data": [{"assay": "abundance fitness (aPCA) (normalised: wild type 0, dead -1); higher = more abundant; growth selection in yeast, the domain comes from the species named", "details": "Homo sapiens", "values": [{"substance": "E3 ubiquitin-protein ligase NEDD4-like H222Y, Q96PU5", "abundance fitness": "-0.171 ± 0.11"}, {"substance": "E3 ubiquitin-protein ligase NEDD4-like K202A, Q96PU5", "abundance fitness": "-0.185 ± 0.06"}, {"substance": "E3 ubiquitin-protein ligase NEDD4-like K202C, Q96PU5", "abundance fitness": "-0.253 ± 0.097"}, {"substance": "E3 ubiquitin-protein ligase NEDD4-like K202D, Q96PU5", "abundance fitness": "-0.491 ± 0.064"}, {"substance": "E3 ubiquitin-protein ligase NEDD4-like K202E, Q96PU5", "abundance fitness": "-0.295 ± 0.095"}, {"substance": "E3 ubiquitin-protein ligase NEDD4-like K202F, Q96PU5", "abundance fitness": "-0.49 ± 0.11"}, {"substance": "E3 ubiquitin-protein ligase NEDD4-like K202G, Q96PU5", "abundance fitness": "-0.482 ± 0.06"}, {"substance": "E3 ubiquitin-protein ligase NEDD4-like K202H, Q96PU5", "abundance fitness": "-0.173 ± 0.078"}, {"substance": "E3 ubiquitin-protein ligase NEDD4-like K202I, Q96PU5", "abundance fitness": "-0.193 ± 0.13"}, {"substance": "E3 ubiquitin-protein ligase NEDD4-like K202L, Q96PU5", "abundance fitness": "-0.205 ± 0.074"}, {"substance": "E3 ubiquitin-protein ligase NEDD4-like K202M, Q96PU5", "abundance fitness": "-0.496 ± 0.1"}, {"substance": "E3 ubiquitin-protein ligase NEDD4-like K202N, Q96PU5", "abundance fitness": "-0.01 ± 0.11"}, {"substance": "E3 ubiquitin-protein ligase NEDD4-like K202P, Q96PU5", "abundance fitness": "-0.814 ± 0.12"}, {"substance": "E3 ubiquitin-protein ligase NEDD4-like K202Q, Q96PU5", "abundance fitness": "-0.252 ± 0.096"}, {"substance": "E3 ubiquitin-protein ligase NEDD4-like K202R, Q96PU5", "abundance fitness": "-0.216 ± 0.062"}, {"substance": "E3 ubiquitin-protein ligase NEDD4-like K202T, Q96PU5", "abundance fitness": "-0.308 ± 0.083"}, {"substance": "E3 ubiquitin-protein ligase NEDD4-like K202V, Q96PU5", "abundance fitness": "-0.408 ± 0.059"}, {"substance": "E3 ubiquitin-protein ligase NEDD4-like K202W, Q96PU5", "abundance fitness": "-0.838 ± 0.089"}, {"substance": "E3 ubiquitin-protein ligase NEDD4-like K202Y, Q96PU5", "abundance fitness": "-0.289 ± 0.11"}, {"substance": "E3 ubiquitin-protein ligase NEDD4-like L190A, Q96PU5", "abundance fitness": "-0.186 ± 0.075"}, {"substance": "E3 ubiquitin-protein ligase NEDD4-like L190C, Q96PU5", "abundance fitness": "0.09 ± 0.076"}, {"substance": "E3 ubiquitin-protein ligase NEDD4-like L190D, Q96PU5", "abundance fitness": "0.066 ± 0.1"}, {"substance": "E3 ubiquitin-protein ligase NEDD4-like L190F, Q96PU5", "abundance fitness": "0.051 ± 0.095"}, {"substance": "E3 ubiquitin-protein ligase NEDD4-like L190G, Q96PU5", "abundance fitness": "-0.178 ± 0.059"}, {"substance": "E3 ubiquitin-protein ligase NEDD4-like L190H, Q96PU5", "abundance fitness": "-0.141 ± 0.11"}, {"substance": "E3 ubiquitin-protein ligase NEDD4-like L190I, Q96PU5", "abundance fitness": "0.125 ± 0.1"}, {"substance": "E3 ubiquitin-protein ligase NEDD4-like L190K, Q96PU5", "abundance fitness": "0.08 ± 0.076"}, {"substance": "E3 ubiquitin-protein ligase NEDD4-like L190M, Q96PU5", "abundance fitness": "-0.407 ± 0.097"}, {"substance": "E3 ubiquitin-protein ligase NEDD4-like L190N, Q96PU5", "abundance fitness": "-0.031 ± 0.087"}, {"substance": "E3 ubiquitin-protein ligase NEDD4-like L190P, Q96PU5", "abundance fitness": "-0.479 ± 0.067"}, {"substance": "E3 ubiquitin-protein ligase NEDD4-like L190Q, Q96PU5", "abundance fitness": "-0.556 ± 0.13"}, {"substance": "E3 ubiquitin-protein ligase NEDD4-like L190R, Q96PU5", "abundance fitness": "-0.024 ± 0.057"}, {"substance": "E3 ubiquitin-protein ligase NEDD4-like L190S, Q96PU5", "abundance fitness": "-0.02 ± 0.056"}, {"substance": "E3 ubiquitin-protein ligase NEDD4-like L190T, Q96PU5", "abundance fitness": "-0.182 ± 0.074"}, {"substance": "E3 ubiquitin-protein ligase NEDD4-like L190V, Q96PU5", "abundance fitness": "-0.053 ± 0.053"}, {"substance": "E3 ubiquitin-protein ligase NEDD4-like L190W, Q96PU5", "abundance fitness": "-0.503 ± 0.068"}, {"substance": "E3 ubiquitin-protein ligase NEDD4-like L190Y, Q96PU5", "abundance fitness": "-0.094 ± 0.088"}, {"substance": "E3 ubiquitin-protein ligase NEDD4-like L195A, Q96PU5", "abundance fitness": "-0.072 ± 0.22"}, {"substance": "E3 ubiquitin-protein ligase NEDD4-like L195F, Q96PU5", "abundance fitness": "-0.902 ± 0.38"}, {"substance": "E3 ubiquitin-protein ligase NEDD4-like L195G, Q96PU5", "abundance fitness": "-0.581 ± 0.28"}, {"substance": "E3 ubiquitin-protein ligase NEDD4-like L195S, Q96PU5", "abundance fitness": "-0.182 ± 0.33"}, {"substance": "E3 ubiquitin-protein ligase NEDD4-like L195V, Q96PU5", "abundance fitness": "0.143 ± 0.17"}, {"substance": "E3 ubiquitin-protein ligase NEDD4-like L206A, Q96PU5", "abundance fitness": "0.124 ± 0.059"}, {"substance": "E3 ubiquitin-protein ligase NEDD4-like L206C, Q96PU5", "abundance fitness": "0.003 ± 0.09"}, {"substance": "E3 ubiquitin-protein ligase NEDD4-like L206D, Q96PU5", "abundance fitness": "0.015 ± 0.095"}, {"substance": "E3 ubiquitin-protein ligase NEDD4-like L206E, Q96PU5", "abundance fitness": "0.044 ± 0.084"}, {"substance": "E3 ubiquitin-protein ligase NEDD4-like L206G, Q96PU5", "abundance fitness": "0.059 ± 0.059"}, {"substance": "E3 ubiquitin-protein ligase NEDD4-like L206I, Q96PU5", "abundance fitness": "-0.159 ± 0.13"}, {"substance": "E3 ubiquitin-protein ligase NEDD4-like L206K, Q96PU5", "abundance fitness": "0.126 ± 0.11"}, {"substance": "E3 ubiquitin-protein ligase NEDD4-like L206M, Q96PU5", "abundance fitness": "-0.083 ± 0.096"}, {"substance": "E3 ubiquitin-protein ligase NEDD4-like L206N, Q96PU5", "abundance fitness": "-0.016 ± 0.11"}, {"substance": "E3 ubiquitin-protein ligase NEDD4-like L206P, Q96PU5", "abundance fitness": "-0.707 ± 0.11"}, {"substance": "E3 ubiquitin-protein ligase NEDD4-like L206Q, Q96PU5", "abundance fitness": "0.021 ± 0.091"}, {"substance": "E3 ubiquitin-protein ligase NEDD4-like L206R, Q96PU5", "abundance fitness": "0.04 ± 0.056"}, {"substance": "E3 ubiquitin-protein ligase NEDD4-like L206S, Q96PU5", "abundance fitness": "0.065 ± 0.054"}, {"substance": "E3 ubiquitin-protein ligase NEDD4-like L206T, Q96PU5", "abundance fitness": "0.011 ± 0.08"}, {"substance": "E3 ubiquitin-protein ligase NEDD4-like L206V, Q96PU5", "abundance fitness": "-0.056 ± 0.062"}, {"substance": "E3 ubiquitin-protein ligase NEDD4-like L206W, Q96PU5", "abundance fitness": "-0.034 ± 0.077"}, {"substance": "E3 ubiquitin-protein ligase NEDD4-like L226A, Q96PU5", "abundance fitness": "0.021 ± 0.072"}, {"substance": "E3 ubiquitin-protein ligase NEDD4-like L226C, Q96PU5", "abundance fitness": "0.063 ± 0.071"}, {"substance": "E3 ubiquitin-protein ligase NEDD4-like L226D, Q96PU5", "abundance fitness": "-0.023 ± 0.088"}, {"substance": "E3 ubiquitin-protein ligase NEDD4-like L226E, Q96PU5", "abundance fitness": "-0.203 ± 0.092"}, {"substance": "E3 ubiquitin-protein ligase NEDD4-like L226F, Q96PU5", "abundance fitness": "-0.079 ± 0.1"}, {"substance": "E3 ubiquitin-protein ligase NEDD4-like L226G, Q96PU5", "abundance fitness": "-0.117 ± 0.057"}, {"substance": "E3 ubiquitin-protein ligase NEDD4-like L226H, Q96PU5", "abundance fitness": "-0.065 ± 0.065"}, {"substance": "E3 ubiquitin-protein ligase NEDD4-like L226I, Q96PU5", "abundance fitness": "-0.186 ± 0.12"}, {"substance": "E3 ubiquitin-protein ligase NEDD4-like L226M, Q96PU5", "abundance fitness": "0.011 ± 0.093"}, {"substance": "E3 ubiquitin-protein ligase NEDD4-like L226N, Q96PU5", "abundance fitness": "0.01 ± 0.09"}]}]}
